In US5804688A, “Compounds and compositions for delivering active agents” (Emisphere Technologies, Inc., priority 1997, dated 1998):
Where two headings read alike, the source gives them in different places.

Legend:
[1] = rat, in vivo, 50 mg/kg
Protocol: (§1) Rats were administered, orally and by intracolonic instillation, dosing solutions of 1 mg/kg of interferon and no carrier.

[2] = In vivo interferon delivery in rats (serum interferon, ELISA); details: 1 mg/kg interferon, no carrier
Protocol: as §1

O=C(O)CCCc1ccc(NC(=O)COc2ccccc2)cc1 [Compound 9]
Mean peak serum interferon concentration [1]: 2611±695

interferon
Mean peak serum interferon concentration ([2]; intracolonic (IC)): 79±100 | Mean peak serum interferon concentration ([2]; oral (PO)): 1951±1857
